According to publication PMC6443781:

Legend:
AP2M1 160-435 [1] = molecular target: AP2M1 160-435 (UniProt Q96CW1); assay: isothermal titration calorimetry; conditions: reference: unphosphorylated peptide YMPMS; sites S616
AP2M1 160-435 [2] = molecular target: AP2M1 160-435 (UniProt Q96CW1); assay: peptide-bead pull-down, Coomassie; conditions: reference: unphosphorylated peptide YMPMS
[3] = molecular target: GFP-AP2B1 full length (FL) (UniProt P63010); assay: co-immunoprecipitation (anti-Myc IP, anti-AP2B1 blot, band quantification); conditions: 293FT cells transfected with GFP-AP2B1 and Myc-BUBR1; n = 3 independent experiments; parent: 1
UniProt P63010, sequence (P63010 whole entry, the tested form may be a part): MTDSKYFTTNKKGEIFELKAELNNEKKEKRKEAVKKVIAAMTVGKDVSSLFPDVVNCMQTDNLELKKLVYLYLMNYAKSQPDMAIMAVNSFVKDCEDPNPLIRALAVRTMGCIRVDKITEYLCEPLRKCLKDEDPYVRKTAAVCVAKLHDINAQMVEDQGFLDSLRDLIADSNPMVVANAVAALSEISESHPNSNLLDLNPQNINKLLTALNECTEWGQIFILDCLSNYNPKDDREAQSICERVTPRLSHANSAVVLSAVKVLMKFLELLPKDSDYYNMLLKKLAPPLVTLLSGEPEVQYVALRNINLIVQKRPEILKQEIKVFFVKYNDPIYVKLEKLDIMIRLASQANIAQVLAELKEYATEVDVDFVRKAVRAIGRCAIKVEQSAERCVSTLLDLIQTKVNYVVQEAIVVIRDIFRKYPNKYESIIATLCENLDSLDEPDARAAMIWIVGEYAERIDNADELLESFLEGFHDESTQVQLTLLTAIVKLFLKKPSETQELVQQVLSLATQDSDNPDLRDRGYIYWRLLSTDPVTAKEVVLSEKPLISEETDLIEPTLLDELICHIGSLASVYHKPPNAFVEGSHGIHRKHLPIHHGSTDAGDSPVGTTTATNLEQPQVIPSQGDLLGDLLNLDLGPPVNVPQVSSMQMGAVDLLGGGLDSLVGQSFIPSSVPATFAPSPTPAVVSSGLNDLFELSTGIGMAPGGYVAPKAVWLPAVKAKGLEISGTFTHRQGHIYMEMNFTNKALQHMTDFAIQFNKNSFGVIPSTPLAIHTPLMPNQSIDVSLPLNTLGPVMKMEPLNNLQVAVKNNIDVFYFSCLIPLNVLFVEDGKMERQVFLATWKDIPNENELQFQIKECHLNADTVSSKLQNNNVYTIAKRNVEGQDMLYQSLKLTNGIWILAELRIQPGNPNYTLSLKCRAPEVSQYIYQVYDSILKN

[4] = molecular target: AP2M1 (residues 160–435) (human) (UniProt Q96CW1); assay: ITC; MicroCal ITC200, 20 °C, 25 mM HEPES pH 7.5, 50 mM NaCl; AP2M1 (160–435) 50 µM in the cell, IRS1 peptide (about 0.5 mM) injected

UniProt Q96CW1, sequence (Q96CW1 160-435): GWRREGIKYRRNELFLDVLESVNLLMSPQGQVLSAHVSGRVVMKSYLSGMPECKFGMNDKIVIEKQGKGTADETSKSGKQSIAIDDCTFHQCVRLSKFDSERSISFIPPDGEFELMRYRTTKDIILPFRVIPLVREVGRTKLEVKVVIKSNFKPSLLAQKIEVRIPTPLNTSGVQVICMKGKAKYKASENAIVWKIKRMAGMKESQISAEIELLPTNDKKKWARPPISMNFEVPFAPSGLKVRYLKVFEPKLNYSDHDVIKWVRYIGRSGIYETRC

Row | Substance | ratio to parent [3] | further results
1 | IRS1 607-620 (from UniProt P35568) YMPMpS peptide |  | KD (AP2M1 160-435 [1]): stronger; reference 2.03 µM; binding against the reference (AP2M1 160-435 [2]; sites S616): stronger
2 | IRS1 607-620 (from UniProt P35568) pYMPMS peptide |  | binding against the reference (AP2M1 160-435 [2]; sites Y612): lost
3 | Myc-BUBR1 full length (WT) (from UniProt O60566) ΔD2 | 0.72 | 
4 | Myc-BUBR1 full length (WT) (from UniProt O60566) ΔKEN1 | 1.31 | 
5 | Myc-BUBR1 full length (WT) (from UniProt O60566) ΔPhe | 0.75 | 
6 | phospho-serine IRS1 peptide (pS-IRS1; YMPMpS) |  | Kd [4]: 280 nM
7 | unphosphorylated IRS1 peptide (YMPMS) |  | Kd [4]: 2030 nM

More lines, main results first:

Row | ratio to parent [3] | Substance | further results
8 | 0.94 | Myc-BUBR1 full length (WT) (from UniProt O60566) ΔKEN2 | 
9 | 0.67 | Myc-BUBR1 full length (WT) (from UniProt O60566) ΔPhe; ΔD2 | 
